Measured values taken from the NTF2 design screens of Basanta et al. (2020).

Assay: protease stability score; higher = more stable; yeast display proteolysis, trypsin and chymotrypsin;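 further: relative to predicted unfolded state with 0 unfolded-like and 1 meaning tenfold more protease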

| Sequence | protease stability score |
| --- | --- |
| SEHELIAHEIVERWVHDVNTGDWENLHRLFDPNTKIDFNGVHLHGRRSLEEWIHEHLRRADHFEVRIKDIRVQGEKSVANTHVNVNINGQEYRRDTSLILIIVDGKVKTMTIRVH | 1.5 |
| SEHEREAREHMEIFRRAFRTGDEQFLTELADPNVRVDVNGVELHGRENFLRVMRHIRFKDIRIKRSREINGVLFIDVRERGIVNGQETTFESEIIILKVDGRWIIEELIIL | 1.39 |
| SEHETEVMRLAEITVKSFLTGDEDTMHHLLDPHVRSDVNGRHHIGRERWLKVVEDMLRHLRLTTIEIHHVDAINGRLHTDTRVNVHINGQEVILETELIIVIVDGVVKEVHWVVK | 0.994 |
| SEHFEIALEILKLFLRSRHTGDWKTMEEMADPDVRLEVGEYTNHGWEEILRVLEELRFEIHFIHDHDVKFQGDKLHLDGHVDGVRRVDGQEVRIVSHIEIISVVVNGRAKSYSEHWV | 0.631 |
| SEHHEEATEATKHFVHLMRTGDFDRLLELADPHVRVRINGKNLIGREDLDKLWKELGLTNVDVRIDDFSHQGDKVEIHTREHFNGRTVDVIVILEKINGQWVIKRREQR | 0.4 |
| SEHHEKLLHLTTLFLEAFWTGDEDIFHHLLDPNVKSIFNGREIHGRHIFSDLRRQIRVERTHVEHEQIVDGRVFMHGKSDGHINGRTHKSHLEIEIVVFDGKVERIKIELR | 0.499 |
| SEHHEVTEKLTRIILHQWDTGNERSLRKMMDPNARVEIEIGDKSWEYHGRENFRHAVERFDYLDNKEHKDERIVGDFSIIDGRVDGVQGDKRYDTNVEIIIIIVNGRIRAIRFIVR | 1.26 |
| SEHHKEAREMVEELIRLYETGDEDTLRTLADPHVRQDINGVDYVGREFAADLLIDEMREIRSHIHVHRIHTYNGQVHVDGHLEFIIGDKSYRLRVHMVVEKVDGKWLHRSEHYK | -0.116 |
| SEHHKLLEDFLHLMQEALHTGNEDFIAELADPNVRINWNGKETHGRENLRRMLHEWRERWGIDRIEFHMKSISVQGDKIDLEMQVHINGRHETMHVRITVINGRLKDVRYELR | 1.66 |
| SEHHKLLVEIAHLWIRNVLTGDEDRLKEMADPNVRIHINGVDIHGMEDFVRHVHERLKEIWIRIEIKRMVPYDGRAEVDGTMHVIVNGQKLSRRVHYDIIIVDGVLQEQHVHVE | 1.64 |
| SEHKEEIIQLAEEIFRKIVTGDWERFWELADPHVRFDVGDKTRHGREKVIEYINRFMKELRFERFHIDDIRVIDGVVVIHTKLRFRVGDFQLHHHTRHEIMMVDGRIQFLRIEWE | 0.096 |
| SEHKEEVHEMIKLFLEALRTGDEDWLKTMIDPNDRIRVGDKELHGREEFDKIVHFFKNARIHLHHYSVINGRVTIHMILHFNGKTFEIHIYAEKVDGRWRHRESEMHER | 1.38 |
| SEHKELVEHITKLSWELLKTGDEEILLHLADPDMKVEVGDKEMHGREEWARFLIETLRRVKNLRVDLHRVHIQGEKAHVDGTIFIDGVEFTDQLNFVVINGRIKHINIIDR | 1.46 |
| SEHLEIAMRVIREDLIKSSTGDWRRLEDYLDPHVKIQVGNKEIVGWEEVEKNMEHLRIEFRDYRIKDARNIDGKINVHGEIVEIIRVGNKTYQMRTEVDFIATKVDGQWTIHSIRFN | 1.15 |
| SEHQEVFEEFVRRWIEDMETGNEEQLRHLADPDARIVINGREHHGREWVSTFLMKRIRHLGVKHVEIDDKKQIGEKIHVRVTIHFDGVTVDTELIALKINGRWFMHEVIFR | 1.5 |
| SEHSHFLVELALIFWKALVTGDEERLDRLIDPNTRLEIGDKEEIGRENIIRKLDHIRIKTEEITVRDYRTQGDKFHMIGHVDLHFDFNGVRHRFTTEVRVDLTTVDGKIHSHHIKYR | 0.145 |
| SEHTHAAVRIMELESEYLTTGDWESVRRLLDPHVQVEIGDFHAHGWEERVRRMREIRVKVQDLRIRTIDFYNGRVELHFELHVRIEFNGRDVRQDTEIVLIVLKVNGKWLVDKIRFE | 0.901 |
| SEIDEEIEKHFELYTHALHTGDEHVLRRLLDPDARLTVGDKTFHGREQVVKELSREIHELRVRDMEIKDEKLVGDKLHQDTRLQFKFNGKEHEIITNFIWLKVNGQWVIREVRYD | 1.25 |

| Sequence | protease stability score |
| --- | --- |
| SEIDEFSEKAFRLLLETLQTGDWRLTSELVDPNVRVHFEGHEHVGMEEVSKVVRHWRVKRIELKHLEVIGEKMHMILHQDIEVNGQRVRTDMIVTADKIDGVWLLTEVRIK | 1.59 |
| SEIDEIAHKMAKEWTKDFVTGDEDHWKRLADPNTRVHINGVELHGRETSSEFKEKLRRHMGVDHMELRVRHVDLFNGRVHMETELIYRVGDKEIRTETHVDLDIVNGRIKEVRYEIR | 0.734 |
| SEIDEWLHRWFNLWIDAFITGDEDFLKELADPDVRLVDGDFEKVGREEFTRSMRQYLRHARVDHFRIKHQHMQGDKIHVHGHIEMTINGKHIRHEIRLRFVVINGRFHSMHIEID | 0.975 |
| SEIDHILKLLAELWIRLWLTGDEEIIEELADPNVRLDINGKDAHGWERLSEVLRLEIKEMRIDHHRLREIRVQGNKSEVDGRLRGTFNGKHREVDVHIEIEVVNGRFKRIRIEFR | 1.42 |
| SEIDHIVKELIRRESEYLKTGDEDAFHDLFDPSTRIEINGQEFHGREWHKHLLKELRFHSIELHDWRIVGDKVEMDTRMLTEVGDKRDYRRTTMHATKFDGKWYLTRVIIE | 1.24 |
| SEIDKESEEVARRLLHMEYTGDEEKMIKLLDPHVRLDINGQLFVGREEAERALRQYWHRVDHIHSIEIHDYKTQGDWFHLDIRVDGEIDGQRRDFRVIVHTRIVNGKVKEMHLKFH | 1.65 |
| SEIDKHAEDVMRIWEHVHRTGNEDTLSHLLDPDVKVEIHYDGVDIRLHGMELVSEFLTRFAHHARNKDFKEKDLELQGNKIIRTGIVVFDYDGVEIRRWTHEEIRVVNGRFTHIKKEFH | 0.442 |
| SEIDREAEELVHLLAEFVETGNEERWLELLDPHVRLDFDGVISHGREHYIEFWRRLKENLGIDKVSFRVRRRKTQGEKAHSDMETDINGQKYHMEVLVVVINGVVKHSEFHYN | 1.07 |
| SEIDREHHELLTLLVHLWLTGDWKTFKKYFDPNVRLHQGDFDDHGWEALEETERKHGIEIKDLELHEFHVQGEKIIINLHVVIRQGDKTYRKDMRITYVVVNGRVTSIRMEVR | 0.877 |
| SEIDRLSEELARLFLELVITGDFKTLSHLADPTVKSDINGVDLHGREELYRWVEEFYNELRVSWVLDSIEVQGEKAYVKGKLESRVDGQRHTDQYEIILIIVNGRFKEIIVKRR | 1.5 |
| SEIEEDSRKASRDLMNSIRTGNEEVLKEMADPHVRTDINGREIHGMEKWLNELSEFLEKFKGAKIDLSLKDIRIQGEYIHIHMHVHLRFNGKSDNKDIEIIALKVDGRWLIQEWRIR | 0.834 |
| SEIEEEAKHVSELMVRWMETGDEKEIYKFADPHVRLEYNGREFHGRESILKHRREIIEKWGVTNIRVSPETFDVINGVVHVELILKVNGRNVIVHILIRKIDGRWRIDSESFI | 1.5 |
| SEIEEEIEQAYKLTKHHWETGDEKDIRRNADPHVRVYFNGREYHGWEVLHEVLRLMGAKHVEIHRYEIQGEYVHIDSEVRQGDKRFRMHVESYKVNGRWFIETVFIK | 0.749 |
| SEIEEELSSDRRDFIRAVLTGDFERHIEQMDPNVKLIFNGKEFHGREEVHRSWEELIDRWGVDKFEYRIEDMEHFPGHLMIHGTLNYNGKRERVIIYAVKFNGRWRVERVEIK | 1.55 |
| SEIEEESEEHLNLYMHAMHTGDWHTLERLADPNVRMDVNGQEHHGREEFVKVLVHMIEHLGIDHVRVKHLDLQGDKLHADTTEEVNGRRIHTILDVTKINGRWFITSLEIH | 0.495 |
| SEIEEFTRKLLEMFLEAFLTGDWKFLWELADPNVRLNVGDKHAHGMESSKHLLDEWLTEMRLRDMHVHSVHFQGEKRDNNGKEHRIYGDKVRLWDVHLHLVIVNGRLKEVNIEER | 1.31 |
| SEIEEHIKHMAHEILHNMLTGDWRRFSELADPNVRITVQQGDKVREYHGWESWKLLLDELRLHRFEFKDMHVQGNYAHIIGRQVGEFDGVRQDRDIEIIHVVVNGRIKQVIVHVE | 1.86 |
| SEIEELMKISLREFLHSSETGDEEHHNRYADPNVRLEIGDKTLIGWEALEHLLEHWKREAGIEKIELHIHVTRIHVQGEKLEFDGHLEVRQGDKVNHVKVTLVITKIDGKWVLHSVVFI | 0.367 |
